One block for each molecule: values may come before it.
What was measured:
[1] = target: cynomolgus BLyS (full length, arginine to histidine at position 132) on CHO-K1 cells (cynomolgus); assay: flow cytometry, CHO-K1 cynoBLyS cells, antibody 2.67 nM
[2] = target: biotinylated hBLyS-ECD (human) (UniProt Q9Y275); assay: ELISA on captured biotinylated hBLyS-ECD; control antibody 0.0213 nM
[3] = target: biotinylated hBLyS-ECD (human) (UniProt Q9Y275); assay: ELISA on captured biotinylated hBLyS-ECD; control antibody 2.67 nM
[4] = target: biotinylated hBLyS-ECD (human) (UniProt Q9Y275); assay: blocking ELISA: biotinylated hBLyS-ECD on coated BAFF R, antibody 0.00128 nM
[5] = target: biotinylated hBLyS-ECD (human) (UniProt Q9Y275); assay: BAFF R-coated ELISA, biotinylated hBLyS-ECD bound in presence of control antibody 100 nM
[6] = target: biotinylated hBLyS-ECD (human) (UniProt Q9Y275); assay: BAFF R-coated ELISA, biotinylated hBLyS-ECD bound in presence of control antibody 0 nM
[7] = target: cynomolgus BLyS (full length, arginine to histidine at position 132) on CHO-K1 cells (cynomolgus); assay: flow cytometry, CHO-K1 cynoBLyS cells, antibody 0.00427 nM
[8] = target: biotinylated hBLyS-ECD (human) (UniProt Q9Y275); assay: ELISA, biotinylated hBLyS-ECD captured on streptavidin; antibody 0 nM (blank)
[9] = target: biotinylated hBLyS-ECD (human) (UniProt Q9Y275); assay: ELISA, biotinylated hBLyS-ECD captured on streptavidin; antibody 0.0213 nM
[10] = target: biotinylated hBLyS-ECD (human) (UniProt Q9Y275); assay: ELISA on captured biotinylated hBLyS-ECD; control antibody 0 nM (background)
[11] = target: biotinylated hBLyS-ECD (human) (UniProt Q9Y275); assay: blocking ELISA: biotinylated hBLyS-ECD on coated BAFF R, antibody 0.0064 nM
[12] = target: human BLyS (full length, arginine to histidine at position 132) on CHO-K1 cells (human) (UniProt Q9Y275); assay: flow cytometry, CHO-K1 hBLyS cells, antibody 2.67 nM
Sequence of human BLyS (full length, arginine to histidine at position 132) on CHO-K1 cells (human) (Q9Y275 whole entry R130H, the tested form may be a part): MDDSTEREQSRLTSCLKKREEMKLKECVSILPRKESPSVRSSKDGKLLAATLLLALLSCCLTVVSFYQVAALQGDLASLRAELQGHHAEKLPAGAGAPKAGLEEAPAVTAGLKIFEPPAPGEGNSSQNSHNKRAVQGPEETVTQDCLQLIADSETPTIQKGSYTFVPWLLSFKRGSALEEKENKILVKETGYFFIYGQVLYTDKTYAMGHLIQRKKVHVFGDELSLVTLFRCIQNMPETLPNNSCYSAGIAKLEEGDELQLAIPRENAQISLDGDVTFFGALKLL

[13] = target: biotinylated hBLyS-ECD (human) (UniProt Q9Y275); assay: blocking ELISA: biotinylated hBLyS-ECD on coated BAFF R, antibody 0.16 nM
[14] = target: cynomolgus BLyS (full length, arginine to histidine at position 132) on CHO-K1 cells (cynomolgus); assay: flow cytometry, CHO-K1 cynoBLyS cells, antibody 0.107 nM
[15] = target: biotinylated hBLyS-ECD (human) (UniProt Q9Y275); assay: ELISA, biotinylated hBLyS-ECD captured on streptavidin; antibody 13.3 nM
[16] = target: human BLyS (full length, arginine to histidine at position 132) on CHO-K1 cells (human) (UniProt Q9Y275); assay: flow cytometry, CHO-K1 hBLyS cells, antibody 13.3 nM
[17] = target: biotinylated hBLyS-ECD (human) (UniProt Q9Y275); assay: blocking ELISA: biotinylated hBLyS-ECD on coated BAFF R, antibody 0.032 nM
[18] = target: biotinylated hBLyS-ECD (human) (UniProt Q9Y275); assay: BAFF R-coated ELISA, biotinylated hBLyS-ECD bound in presence of control antibody 0.0064 nM
[19] = target: human BLyS (full length, arginine to histidine at position 132) on CHO-K1 cells (human) (UniProt Q9Y275); assay: flow cytometry, CHO-K1 hBLyS cells, antibody 0.0213 nM
[20] = target: biotinylated hBLyS-ECD (human) (UniProt Q9Y275); assay: ELISA on captured biotinylated hBLyS-ECD; control antibody 0.107 nM
[21] = target: human BLyS (full length, arginine to histidine at position 132) on CHO-K1 cells (human) (UniProt Q9Y275); assay: flow cytometry, CHO-K1 hBLyS cells, antibody 0.107 nM
biotinylated hBLyS-ECD [22] = target: T1, biotinylated hBLyS-ECD (human, UniProt Q9Y275 134-285, biotinylated with Biotin-X-X-NHS (molar ratio 7:1); sites not stated); assay: ELISA on captured biotinylated hBLyS-ECD; antibody 0.0213 nM
T1 construct: also called biotinylated immunogen; biotinylated hBLvS-ECD

biotinylated hBLyS-ECD [23] = target: T1, biotinylated hBLyS-ECD; assay: ELISA on captured biotinylated hBLyS-ECD; antibody 0 nM (background)
biotinylated hBLyS-ECD [24] = target: T1, biotinylated hBLyS-ECD; assay: ELISA on captured biotinylated hBLyS-ECD; antibody 0.0213 nM; remark: listed apart in the source
biotinylated hBLyS-ECD [25] = target: T1, biotinylated hBLyS-ECD; assay: BAFF R-coated ELISA, biotinylated hBLyS-ECD bound in presence of antibody 0.0064 nM
biotinylated hBLyS-ECD [26] = target: T1, biotinylated hBLyS-ECD; assay: ELISA on captured biotinylated hBLyS-ECD; antibody 2.67 nM
biotinylated hBLyS-ECD [27] = target: T1, biotinylated hBLyS-ECD; assay: BAFF R-coated ELISA, biotinylated hBLyS-ECD bound in presence of antibody 0.032 nM
biotinylated hBLyS-ECD [28] = target: T1, biotinylated hBLyS-ECD; assay: BAFF R-coated ELISA, biotinylated hBLyS-ECD bound in presence of antibody 0 nM
biotinylated hBLyS-ECD [29] = target: T1, biotinylated hBLyS-ECD; assay: ELISA on captured biotinylated hBLyS-ECD; antibody 2.67 nM; remark: listed apart in the source

Sequence of cynomolgus BLyS (full length, arginine to histidine at position 132) on CHO-K1 cells (cynomolgus) (Q9Y275 other isoform, or with tags, fused parts or gaps limits assumed): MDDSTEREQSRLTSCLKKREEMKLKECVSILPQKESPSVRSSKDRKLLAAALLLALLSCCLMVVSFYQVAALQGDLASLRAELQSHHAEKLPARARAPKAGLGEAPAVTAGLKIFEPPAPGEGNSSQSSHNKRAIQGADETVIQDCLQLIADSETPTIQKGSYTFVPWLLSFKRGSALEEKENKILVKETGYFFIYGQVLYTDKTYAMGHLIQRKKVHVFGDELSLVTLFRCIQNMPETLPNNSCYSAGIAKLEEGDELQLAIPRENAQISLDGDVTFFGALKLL

MFI [1]: 22.7 MFI
OD450 nm [2]: 0.0887 OD450 nm
OD450 nm [3]: 0.237 OD450 nm
OD450 nm [4]: 1.13 OD450 nm
OD450 nm [5]: 1.87 OD450 nm
OD450 nm [6]: 2.37 OD450 nm
MFI [7]: 22 MFI
OD450 nm [8]: 0.103
OD450 nm [9]: 0.111
OD450 nm [10]: 0.0731 OD450 nm
OD450 nm [11]: 1.14 OD450 nm
MFI [12]: 33.1 MFI
OD450 nm [13]: 1.08 OD450 nm
MFI [14]: 22.8 MFI
OD450 nm [15]: 0.102
MFI [16]: 35.1 MFI
OD450 nm [17]: 1.11 OD450 nm
OD450 nm [18]: 2.01 OD450 nm
MFI [19]: 33.6 MFI
OD450 nm [20]: 0.0662 OD450 nm
MFI [21]: 32.9 MFI
Molecule: hIgG Control (antibody)

MFI [1]: 21.2 MFI
OD450 nm [4]: 1.42 OD450 nm
MFI [7]: 20.4 MFI
OD450 nm [8]: 0.0574
OD450 nm [9]: 0.0595
OD450 nm [11]: 1.4 OD450 nm
MFI [12]: 31 MFI
OD450 nm [13]: 1.47 OD450 nm
MFI [14]: 19.7 MFI
OD450 nm [15]: 0.0627
MFI [16]: 31.7 MFI
OD450 nm [17]: 1.45 OD450 nm
MFI [19]: 32.7 MFI
MFI [21]: 31.6 MFI
Molecule: mIgG Control (antibody)

OD450 nm (biotinylated hBLyS-ECD [22]): 0.574 OD450 nm
OD450 nm (biotinylated hBLyS-ECD [23]): 0.322 OD450 nm
OD450 nm (biotinylated hBLyS-ECD [24]): 0.508 OD450 nm
OD450 nm (biotinylated hBLyS-ECD [25]): 2.01 OD450 nm
OD450 nm (biotinylated hBLyS-ECD [26]): 3.24 OD450 nm
OD450 nm (biotinylated hBLyS-ECD [27]): 1.97 OD450 nm
OD450 nm (biotinylated hBLyS-ECD [28]): 1.95 OD450 nm
OD450 nm (biotinylated hBLyS-ECD [29]): 2.21 OD450 nm
B1: c8E7D9C7F5 (antibody, V domains shown)
VH: QVQLQQSGVELARPGASVKLSCKASGYTFTSYGISWVKQRTGQALEWIGEIYPRSGNTYYNEKFKGKATLTADKSSSTAYMELRSLTSEDSAVYFCARSGPITTLVATDYGMDYWGQGTSVTVSS
VL: DIVLTQSPASLAVSLGQRATISCRASKSVSTSSYSYMHWYQQKPGQPPKLLIKFASNLESGVPARFSGSGSGTDFTLNIHPVEEEDAATYYCQHSREFPYTFGGGTKLEIK
notes: also called chimeric antibody c8E7D9C7F5

OD450 nm (biotinylated hBLyS-ECD [22]): 0.936 OD450 nm
OD450 nm (biotinylated hBLyS-ECD [23]): 0.165 OD450 nm
OD450 nm (biotinylated hBLyS-ECD [24]): 0.374 OD450 nm
OD450 nm (biotinylated hBLyS-ECD [25]): 1.96 OD450 nm
OD450 nm (biotinylated hBLyS-ECD [26]): 3.32 OD450 nm
OD450 nm (biotinylated hBLyS-ECD [27]): 1.84 OD450 nm
OD450 nm (biotinylated hBLyS-ECD [28]): 1.91 OD450 nm
OD450 nm (biotinylated hBLyS-ECD [29]): 2.25 OD450 nm
B2: c97A3C2H4 (antibody, V domains shown)
VH: EVKLVESGGGLVQPGGSLKLSCAASGFTFSTYTMSWVRQTPEKRLEWVAYISYGGGSTSYPDTVKGRFTISRDNAKNTLYLQMSSLKSEDTAIYYCTRHVTVVENSMDYWGQGTSVTVSS
VL: DILLTQSPDILSVSPGERVSFSCRASQSIGTSIHWYQQRTNGSPRLLIKYVSESFSGTPSRFSGSGSGTAFTLTINSVESEDIADYYCQQTHSWPWTFGGGTKLEIK
notes: also called chimeric antibody c97A3C2H4
